One may read the IC50 as the point on the concentration scale where inhibition reaches its midpoint. One may read the Kd as the constant that tells how readily two partners part at equilibrium. As a reminder, the koff is the first-order rate constant of dissociation. As usually defined, the kon is the second-order rate constant of association.

Experiment [1] concerns the target T1, soluble, recombinant hFcRn (human, UniProt P55899 24-297; P61769 21-119, limits assumed, biotinylated in the yeast flow cytometry assays (biotin-soluble FcRn); site not stated).
T1 construct: also called rFcRn; soluble FcRn
In words: competition, flow cytometry: IgG1 inhibits binding of soluble FcRn to yeast-displayed m01s at pH 6.0.

The target of experiment [2] is T1, soluble, recombinant hFcRn. In words: Biacore (SPR), HiswtCH2 at 75-1200 nM. Here is the method:
For reference, the WT CH2 sequence (without the HIS tag) is shown in SEQ ID NO: 1. “HiswtCH2” of FIG. 1 is the WT CH2 sequence with a His tag, e.g., a group of histidine residues in a row, e.g., 6 histidine residues. […] HiswtCH2 was tested at 75, 150, 300, 600, 1200 nM. The A curves (1A, 2A, 3A, 4A, 5A, and 6A) are binding curves; the B curves (1B, 2B, 3B, 4B, 5B, and 6B) are fitted curves.
On the technique in general: In SPR one partner is held on a chip, and binding of the other changes the refractive index at the surface.

T1 sequence (P55899 24-297 limits assumed, chain 1 of 2): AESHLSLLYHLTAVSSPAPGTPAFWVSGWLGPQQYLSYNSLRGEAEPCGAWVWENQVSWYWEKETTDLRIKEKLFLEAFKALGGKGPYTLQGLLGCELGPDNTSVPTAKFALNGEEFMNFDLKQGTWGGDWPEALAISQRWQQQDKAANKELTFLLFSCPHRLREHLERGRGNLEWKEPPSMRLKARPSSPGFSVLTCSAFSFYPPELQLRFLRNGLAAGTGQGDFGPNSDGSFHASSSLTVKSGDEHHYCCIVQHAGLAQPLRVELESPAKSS
T1 sequence (P61769 21-119 limits assumed, chain 2 of 2): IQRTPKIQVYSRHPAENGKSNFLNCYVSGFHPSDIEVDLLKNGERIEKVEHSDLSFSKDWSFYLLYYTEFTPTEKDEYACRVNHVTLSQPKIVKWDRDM

On to IgG1 (antibody), for which, in experiment [1], the IC50 was determined as 629 nM.

B1: HiswtCH2 (wild type CH2 domain of human IgG1 with a His tag) (other)
chain: APELLGGPSVFLFPPKPKDTLMISRTPEVTCVVVDVSHEDPEVKFNWYVDGVEVHNAKTKPREEQYNSTYRVVSVLTVLHQDWLNGKEYKCKVSNKALPAPIEKTISKAKGQ
notes: also called wild type (WT) CH2; not shown: His tag, 'e.g., 6 histidine residues'
As for B1, in experiment [2], the Kd came to 90.8 nM, the koff is 0.00184 s⁻¹ and the kon turned out to be 20300 M⁻¹ s⁻¹.
